Test results reported in patent US11278600B2, “Human alpha-galactosidase variants” (Codexis, Inc., priority 2014, dated 2022).
Positions count from the first letter of the chain named.

Assays:
Assay type in all cases: biochemical
[1] = HTP-analysis of yeast culture supernatants, no challenge (MUGal hydrolysis); conditions: activity of the variant/activity of WT GLA (SEQ ID NO: 5), yeast supernatant
Outline: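 Activity read as 4-methylumbelliferyl α-D-galactopyranoside hydrolysis: fluorescence (355/448 nm) after sodium carbonate stop, following 30-180 min at 37° C with 2 mM MUGal stock at pH 4.6–4.8. Enzyme source is unchallenged culture supernatant of INVSc1 yeast expressing GLA variants, grown 66-84 h at 30° C.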

[2] = HTP-analysis of supernatants pretreated with acid (MUGal hydrolysis); conditions: challenge at pH 4.2; activity of the variant/activity of WT GLA (SEQ ID NO: 5); yeast supernatant
Outline: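 Supernatants from INVSc1 yeast secreting GLA variants were challenged at 37° C. for 1-3 h in McIlvaine buffer at pH 3.3-4.3. Residual activity was then measured on 4 mM MUGal substrate stock at pH 4.8 with citrate buffer pH 4.3, over 30-180 min at 37° C. Reactions were quenched with sodium carbonate and read by fluorescence (Ex 355/Em 448 nm).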

[3] = HTP-analysis of supernatants pretreated with base (MUGal hydrolysis); conditions: challenge at pH 7.1; activity of the variant/activity of WT GLA (SEQ ID NO: 5); yeast supernatant
Outline: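 Supernatants from INVSc1 yeast expressing GLA variants (SD-Ura, 66-84 h, 30° C) were mixed with McIlvaine buffer pH 7.0-8.2 or 200 mM sodium bicarbonate pH 9.1-9.7 and held 1-18 h at 37° C. Residual activity was then measured on MUGal at pH 4.8/4.3, 37° C, 30-180 min, by fluorescence (Ex 355/Em 448 nm).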

B1: 170 (protein)
chain: LDNGLARTPTMGWLHWERFMCNLDCQEEPDSCISEKLFMEMAELMVSEGWKDAGYEYLCIDDCWMAPQRDSEGRLQADPQRFPHGIRQLANYVHSKGLKLGIYADVGNKTCAGFPGSFGYYDIDAQTFADWGVDLLKFDGCYCDSLENLADGYKHMSLALNRTGRSIVYSCEWPLYMWPFQKPNYTEIRQYCNHWRNFADIDDSWKSIKSILDWTSFNQERIVDVAGPGGWNDPDMLVIGNFGLSWNQQVTQMALWAIMAAPLFMSNDLRHISPQAKALLQDKDVIAINQDPLGKQGYQLRQGDNFEVWERPLSGLAWAVAMINRQEIGGPRSYTIAVASLGKGVACNPACFITQLLPVKRKLGFYEWTSRLRSHINPTGTVLLQLENTMQMEKDLLL
modifications: Synthetic Polypeptide sequence of Variant No. 170 of mature Human GLA
[1]
  Relative Activity of GLA Variants After No Challenge (NC): ++ (++ = >1.5 to 2.5 relative activity over WT GLA (SEQ ID NO: 5))
[2]
  Relative Activity of GLA Variants After Challenge at pH 4.2: ++ (++ = >1.5 to 2.5 relative activity over WT GLA (SEQ ID NO: 5))
[3]
  Relative Activity of GLA Variants After Challenge at pH 7.1: ++ (++ = >1.5 to 2.5 relative activity over WT GLA (SEQ ID NO: 5))

B2: 177 (protein)
chain: B1 chain with S95D, E393S
modifications: Synthetic Polypeptide sequence of Variant No. 177 of mature Human GLA
[1]
  Relative Activity of GLA Variants After No Challenge (NC): + (+ = 0.5 to 1.5 relative activity over WT GLA (SEQ ID NO: 5))
[2]
  Relative Activity of GLA Variants After Challenge at pH 4.2: ++ (++ = >1.5 to 2.5 relative activity over WT GLA (SEQ ID NO: 5))
[3]
  Relative Activity of GLA Variants After Challenge at pH 7.1: + (+ = 0.5 to 1.5 relative activity over WT GLA (SEQ ID NO: 5))

B3: 176 (protein)
chain: B1 chain with S47T, E393S
modifications: Synthetic Polypeptide sequence of Variant No. 176 of mature Human GLA
[1]
  Relative Activity of GLA Variants After No Challenge (NC): + (+ = 0.5 to 1.5 relative activity over WT GLA (SEQ ID NO: 5))
[2]
  Relative Activity of GLA Variants After Challenge at pH 4.2: + (+ = 0.5 to 1.5 relative activity over WT GLA (SEQ ID NO: 5))
[3]
  Relative Activity of GLA Variants After Challenge at pH 7.1: + (+ = 0.5 to 1.5 relative activity over WT GLA (SEQ ID NO: 5))

B4: 184 (protein)
chain: B1 chain with V168A, E393S
modifications: Synthetic Polypeptide sequence of Variant No. 184 of mature Human GLA
[1]
  Relative Activity of GLA Variants After No Challenge (NC): ++ (++ = >1.5 to 2.5 relative activity over WT GLA (SEQ ID NO: 5))
[2]
  Relative Activity of GLA Variants After Challenge at pH 4.2: + (+ = 0.5 to 1.5 relative activity over WT GLA (SEQ ID NO: 5))
[3]
  Relative Activity of GLA Variants After Challenge at pH 7.1: + (+ = 0.5 to 1.5 relative activity over WT GLA (SEQ ID NO: 5))

B5: 171 (protein)
chain: B1 chain with E393G
modifications: Synthetic Polypeptide sequence of Variant No. 171 of mature Human GLA
[1]
  Relative Activity of GLA Variants After No Challenge (NC): ++ (++ = >1.5 to 2.5 relative activity over WT GLA (SEQ ID NO: 5))
[2]
  Relative Activity of GLA Variants After Challenge at pH 4.2: ++ (++ = >1.5 to 2.5 relative activity over WT GLA (SEQ ID NO: 5))
[3]
  Relative Activity of GLA Variants After Challenge at pH 7.1: ++ (++ = >1.5 to 2.5 relative activity over WT GLA (SEQ ID NO: 5))

B6: 181 (protein)
chain: B1 chain with T369S, E393S
modifications: Synthetic Polypeptide sequence of Variant No. 181 of mature Human GLA
[1]
  Relative Activity of GLA Variants After No Challenge (NC): + (+ = 0.5 to 1.5 relative activity over WT GLA (SEQ ID NO: 5))
[2]
  Relative Activity of GLA Variants After Challenge at pH 4.2: + (+ = 0.5 to 1.5 relative activity over WT GLA (SEQ ID NO: 5))
[3]
  Relative Activity of GLA Variants After Challenge at pH 7.1: + (+ = 0.5 to 1.5 relative activity over WT GLA (SEQ ID NO: 5))

B7: 172 (protein)
chain: B1 chain with E393H
modifications: Synthetic Polypeptide sequence of Variant No. 172 of mature Human GLA
[1]
  Relative Activity of GLA Variants After No Challenge (NC): + (+ = 0.5 to 1.5 relative activity over WT GLA (SEQ ID NO: 5))
[2]
  Relative Activity of GLA Variants After Challenge at pH 4.2: + (+ = 0.5 to 1.5 relative activity over WT GLA (SEQ ID NO: 5))
[3]
  Relative Activity of GLA Variants After Challenge at pH 7.1: + (+ = 0.5 to 1.5 relative activity over WT GLA (SEQ ID NO: 5))

B8: 174 (protein)
chain: B1 chain with S47I, E393S
modifications: Synthetic Polypeptide sequence of Variant No. 174 of mature Human GLA
[1]
  Relative Activity of GLA Variants After No Challenge (NC): + (+ = 0.5 to 1.5 relative activity over WT GLA (SEQ ID NO: 5))
[2]
  Relative Activity of GLA Variants After Challenge at pH 4.2: + (+ = 0.5 to 1.5 relative activity over WT GLA (SEQ ID NO: 5))
[3]
  Relative Activity of GLA Variants After Challenge at pH 7.1: + (+ = 0.5 to 1.5 relative activity over WT GLA (SEQ ID NO: 5))

B9: 175 (protein)
chain: B1 chain with S47R, E393S
modifications: Synthetic Polypeptide sequence of Variant No. 175 of mature Human GLA
[1]
  Relative Activity of GLA Variants After No Challenge (NC): + (+ = 0.5 to 1.5 relative activity over WT GLA (SEQ ID NO: 5))
[2]
  Relative Activity of GLA Variants After Challenge at pH 4.2: ++ (++ = >1.5 to 2.5 relative activity over WT GLA (SEQ ID NO: 5))
[3]
  Relative Activity of GLA Variants After Challenge at pH 7.1: + (+ = 0.5 to 1.5 relative activity over WT GLA (SEQ ID NO: 5))

B10: 183 (protein)
chain: B1 chain with V133I, E393S
modifications: Synthetic Polypeptide sequence of Variant No. 183 of mature Human GLA
[1]
  Relative Activity of GLA Variants After No Challenge (NC): + (+ = 0.5 to 1.5 relative activity over WT GLA (SEQ ID NO: 5))
[2]
  Relative Activity of GLA Variants After Challenge at pH 4.2: + (+ = 0.5 to 1.5 relative activity over WT GLA (SEQ ID NO: 5))
[3]
  Relative Activity of GLA Variants After Challenge at pH 7.1: + (+ = 0.5 to 1.5 relative activity over WT GLA (SEQ ID NO: 5))

B11: 180 (protein)
chain: B1 chain with T369D, E393S
modifications: Synthetic Polypeptide sequence of Variant No. 180 of mature Human GLA
[1]
  Relative Activity of GLA Variants After No Challenge (NC): ++ (++ = >1.5 to 2.5 relative activity over WT GLA (SEQ ID NO: 5))
[2]
  Relative Activity of GLA Variants After Challenge at pH 4.2: ++ (++ = >1.5 to 2.5 relative activity over WT GLA (SEQ ID NO: 5))
[3]
  Relative Activity of GLA Variants After Challenge at pH 7.1: +++ (+++ = >2.5 relative activity over WT GLA (SEQ ID NO: 5))

B12: 173 (protein)
chain: B1 chain with E393P
modifications: Synthetic Polypeptide sequence of Variant No. 173 of mature Human GLA
[1]
  Relative Activity of GLA Variants After No Challenge (NC): ++ (++ = >1.5 to 2.5 relative activity over WT GLA (SEQ ID NO: 5))
[2]
  Relative Activity of GLA Variants After Challenge at pH 4.2: ++ (++ = >1.5 to 2.5 relative activity over WT GLA (SEQ ID NO: 5))
[3]
  Relative Activity of GLA Variants After Challenge at pH 7.1: ++ (++ = >1.5 to 2.5 relative activity over WT GLA (SEQ ID NO: 5))

B13: 185 (protein)
chain: B1 chain with V168L, E393S
modifications: Synthetic Polypeptide sequence of Variant No. 185 of mature Human GLA
[1]
  Relative Activity of GLA Variants After No Challenge (NC): + (+ = 0.5 to 1.5 relative activity over WT GLA (SEQ ID NO: 5))
[2]
  Relative Activity of GLA Variants After Challenge at pH 4.2: ++ (++ = >1.5 to 2.5 relative activity over WT GLA (SEQ ID NO: 5))
[3]
  Relative Activity of GLA Variants After Challenge at pH 7.1: + (+ = 0.5 to 1.5 relative activity over WT GLA (SEQ ID NO: 5))

B14: 178 (protein)
chain: B1 chain with S95E, E393S
modifications: Synthetic Polypeptide sequence of Variant No. 178 of mature Human GLA
[1]
  Relative Activity of GLA Variants After No Challenge (NC): ++ (++ = >1.5 to 2.5 relative activity over WT GLA (SEQ ID NO: 5))
[2]
  Relative Activity of GLA Variants After Challenge at pH 4.2: +++ (+++ = >2.5 relative activity over WT GLA (SEQ ID NO: 5))
[3]
  Relative Activity of GLA Variants After Challenge at pH 7.1: ++ (++ = >1.5 to 2.5 relative activity over WT GLA (SEQ ID NO: 5))

B15: 182 (protein)
chain: B1 chain with T389S, E393S
modifications: Synthetic Polypeptide sequence of Variant No. 182 of mature Human GLA
[1]
  Relative Activity of GLA Variants After No Challenge (NC): ++ (++ = >1.5 to 2.5 relative activity over WT GLA (SEQ ID NO: 5))
[2]
  Relative Activity of GLA Variants After Challenge at pH 4.2: + (+ = 0.5 to 1.5 relative activity over WT GLA (SEQ ID NO: 5))
[3]
  Relative Activity of GLA Variants After Challenge at pH 7.1: + (+ = 0.5 to 1.5 relative activity over WT GLA (SEQ ID NO: 5))

B16: 179 (protein)
chain: B1 chain with S95Q, E393S
modifications: Synthetic Polypeptide sequence of Variant No. 179 of mature Human GLA
[1]
  Relative Activity of GLA Variants After No Challenge (NC): + (+ = 0.5 to 1.5 relative activity over WT GLA (SEQ ID NO: 5))
[2]
  Relative Activity of GLA Variants After Challenge at pH 4.2: + (+ = 0.5 to 1.5 relative activity over WT GLA (SEQ ID NO: 5))
[3]
  Relative Activity of GLA Variants After Challenge at pH 7.1: + (+ = 0.5 to 1.5 relative activity over WT GLA (SEQ ID NO: 5))
